Source: patent US20190142971A1, “FORMULATION AND DELIVERY OF MODIFIED NUCLEOSIDE, NUCLEOTIDE, AND NUCLEIC ACID COMPOSITIONS” (ModernaTX, Inc., priority 2013, published 2019)

What was measured:
mice = assay: Example 42B: EPO mRNA dose response IM in mice (Table 68); type: in vivo
Experimental: The mice were bled at 13 hours after the injection to determine the concentration of the human polypeptide in serum in pg/mL.

[1] = system: non-human primates (cynomolgus monkey); assay: Example 22: NHP serum chemistry ALT and AST (Tables 45, 46); type: in vivo
[2] = 0.005 mg/kg, 2 days, Female NHP
[3] = 0.005 mg/kg, 4 days, Female NHP
[4] = 0.005 mg/kg, 7 days, Female NHP
[5] = 0.005 mg/kg, 14 days, Female NHP
[6] = 0.005 mg/kg, Pre-dose, Female NHP
[7] = 0.005 mg/kg, Pre-dose, Male NHP
[8] = 0.05 mg/kg, 14 days, Female NHP
[9] = 0.05 mg/kg, Pre-dose, Female NHP

B1: EPO: modified mRNA encoding human erythropoietin, SEQ ID NO: 7, Cap1, fully modified with 5-methylcytosine and pseudouridine; LNP NPA-060-1 in Examples 17-22 (nucleic acid)
chain: GGGAAAUAAGAGAGAAAAGAAGAGUAAGAAGAAAUAUAAGAGCCACCAUGGGAGUGCACGAGUGUCCCGCGUGGUUGUGGUUGCUGCUGUCGCUCUUGAGCCUCCCACUGGGACUGCCUGUGCUGGGGGCACCACCCAGAUUGAUCUGCGACUCACGGGUACUUGAGAGGUACCUUCUUGAAGCCAAAGAAGCCGAAAACAUCACAACCGGAUGCGCCGAGCACUGCUCCCUCAAUGAGAACAUUACUGUACCGGAUACAAAGGUCAAUUUCUAUGCAUGGAAGAGAAUGGAAGUAGGACAGCAGGCCGUCGAAGUGUGGCAGGGGCUCGCGCUUUUGUCGGAGGCGGUGUUGCGGGGUCAGGCCCUCCUCGUCAACUCAUCACAGCCGUGGGAGCCCCUCCAACUUCAUGUCGAUAAAGCGGUGUCGGGGCUCCGCAGCUUGACGACGUUGCUUCGGGCUCUGGGCGCACAAAAGGAGGCUAUUUCGCCGCCUGACGCGGCCUCCGCGGCACCCCUCCGAACGAUCACCGCGGACACGUUUAGGAAGCUUUUUAGAGUGUACAGCAAUUUCCUCCGCGGAAAGCUGAAAUUGUAUACUGGUGAAGCGUGUAGGACAGGGGAUCGCUGAUAAGCUGCCUUCUGCGGGGCUUGCCUUCUGGCCAUGCCCUUCUUCUCUCCCUUGCACCUGUACCUCUUGGUCUUUGAAUAAAGCCUGAGUAGGAAG
modifications: Cap1, 5-methylcytosine, pseudouridine
- Average Protein Product, serum (mice; Dose Vol. (μl/mouse) 1, 13 hours): 2.6 pg/mL
- Average Protein Product, serum (mice; Dose Vol. (μl/mouse) 10, 13 hours): 25.9 pg/mL
- Average Protein Product, serum (mice; Dose Vol. (μl/mouse) 25, 13 hours): 18.7 pg/mL
- Average Protein Product, serum (mice; Dose Vol. (μl/mouse) 50, 13 hours): 63.5 pg/mL
- Average Protein Product, serum (mice; Dose Vol. (μl/mouse) 100, 13 hours): 96.2 pg/mL
- ALT [1, 2]: 48 U/L
- AST [1, 2]: 25 U/L
- ALT ([1]; 0.005 mg/kg, 2 days, Male NHP): 62 U/L
- AST ([1]; 0.005 mg/kg, 2 days, Male NHP): 29 U/L
- ALT [1, 3]: 50 U/L
- AST [1, 3]: 55 U/L
- ALT ([1]; 0.005 mg/kg, 4 days, Male NHP): 48 U/L
- AST ([1]; 0.005 mg/kg, 4 days, Male NHP): 43 U/L
- ALT [1, 4]: 48 U/L
- AST [1, 4]: 31 U/L
- ALT ([1]; 0.005 mg/kg, 7 days, Male NHP): 21 U/L
- AST ([1]; 0.005 mg/kg, 7 days, Male NHP): 55 U/L
- ALT [1, 5]: 51 U/L
- AST [1, 5]: 54 U/L
- ALT ([1]; 0.005 mg/kg, 14 days, Male NHP): 43 U/L
- AST ([1]; 0.005 mg/kg, 14 days, Male NHP): 35 U/L
- ALT [1, 6]: 45 U/L
- AST [1, 6]: 40 U/L
- ALT [1, 7]: 45 U/L
- AST [1, 7]: 39 U/L
- ALT ([1]; 0.05 mg/kg, 2 days, Female NHP): 254 U/L
- AST ([1]; 0.05 mg/kg, 2 days, Female NHP): 80 U/L
- ALT ([1]; 0.05 mg/kg, 2 days, Male NHP): 95 U/L
- AST ([1]; 0.05 mg/kg, 2 days, Male NHP): 61 U/L
- ALT ([1]; 0.05 mg/kg, 4 days, Female NHP): 200 U/L
- AST ([1]; 0.05 mg/kg, 4 days, Female NHP): 94 U/L
- ALT ([1]; 0.05 mg/kg, 4 days, Male NHP): 70 U/L
- AST ([1]; 0.05 mg/kg, 4 days, Male NHP): 48 U/L
- ALT ([1]; 0.05 mg/kg, 7 days, Female NHP): 187 U/L
- AST ([1]; 0.05 mg/kg, 7 days, Female NHP): 78 U/L
- ALT ([1]; 0.05 mg/kg, 7 days, Male NHP): 64 U/L
- AST ([1]; 0.05 mg/kg, 7 days, Male NHP): 53 U/L
- ALT [1, 8]: 216 U/L
- AST [1, 8]: 47 U/L
- ALT ([1]; 0.05 mg/kg, 14 days, Male NHP): 29 U/L
- AST ([1]; 0.05 mg/kg, 14 days, Male NHP): 32 U/L
- ALT [1, 9]: 160 U/L
- AST [1, 9]: 58 U/L
- ALT ([1]; 0.05 mg/kg, Pre-dose, Male NHP): 56 U/L
- AST ([1]; 0.05 mg/kg, Pre-dose, Male NHP): 74 U/L
- ALT ([1]; 0.5 mg/kg, 2 days, Female NHP): 77 U/L
- AST ([1]; 0.5 mg/kg, 2 days, Female NHP): 141 U/L
- ALT ([1]; 0.5 mg/kg, 2 days, Male NHP): 98 U/L
- AST ([1]; 0.5 mg/kg, 2 days, Male NHP): 125 U/L
- ALT ([1]; 0.5 mg/kg, 4 days, Female NHP): 87 U/L
- AST ([1]; 0.5 mg/kg, 4 days, Female NHP): 60 U/L
- ALT ([1]; 0.5 mg/kg, 4 days, Male NHP): 94 U/L
- AST ([1]; 0.5 mg/kg, 4 days, Male NHP): 71 U/L
- ALT ([1]; 0.5 mg/kg, 7 days, Female NHP): 59 U/L
- AST ([1]; 0.5 mg/kg, 7 days, Female NHP): 47 U/L
- ALT ([1]; 0.5 mg/kg, 7 days, Male NHP): 60 U/L
- AST ([1]; 0.5 mg/kg, 7 days, Male NHP): 56 U/L
- ALT ([1]; 0.5 mg/kg, 14 days, Female NHP): 44 U/L
- AST ([1]; 0.5 mg/kg, 14 days, Female NHP): 44 U/L
